Data taken from publication doi:10.1101/2022.04.11.487660 (bioRxiv, 2022).

Biological target: lysozyme (UniProt P00698)
Assay: ELISA

B1: camel nanobody 1ZVH, displayed on phage (VHH)
VHH: DVQLVESGGGSVQAGGSLRLSCAASGYIASINYLGWFRQAPGKEREGVAAVSPAGGTPYYADSVKGRFTVSLDNAENTVYLQMNSLKPEDTALYYCAAARQGWYIPLNSYGYNYWGQGTQVTVSS
  binding result: binds
